In the supplement of paper PMC10567573:

B1: GLTSCR2 (parent)
chain: FQRRNMIEPRERAKFKRKYKVKLV

Variants of: B1
Experiment: protein stability index of a GFP-peptide fusion (GPS, HEK-293T) (PSI 1-6); higher = more stable
Settings: c terminus: a fixed tail appended
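Also: lentivirally expressed fusions sorted by FACS into six bins by GFP to DsRed ratio, PSI derived from sequencing read proportions per bin multiplied by bin number.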

First: FQCRNMIEPRERAKFKRKYKVKLV [R3C]
Second: FQYRNMIEPRERAKFKRKYKVKLV [R3Y]
The protein stability index of the first is higher: 2.38 for the first, 1.6 for the second.

Going from FQERNMIEPRERAKFKRKYKVKLV [R3E] to FQARNMIEPRERAKFKRKYKVKLV [R3A], the protein stability index rises from 2.69 to 2.8.

Going from FQSRNMIEPRERAKFKRKYKVKLV [R3S] to FQWRNMIEPRERAKFKRKYKVKLV [R3W], the protein stability index falls from 1.65 to 1.58.

First: FQDRNMIEPRERAKFKRKYKVKLV [R3D]
Second: FQGRNMIEPRERAKFKRKYKVKLV [R3G]
The protein stability index of the first is higher: 2.71 for the first, 2.17 for the second.

Going from FQVRNMIEPRERAKFKRKYKVKLV [R3V] to FQRRNMIEPRERCKFKRKYKVKLV [A13C], the protein stability index falls from 2.04 to 1.98.

Compared with FQRRNMIEPRERDKFKRKYKVKLV [A13D], FQRRNMIEPRERKKFKRKYKVKLV [A13K] is higher in protein stability index: 1.7 for the first, 2.37 for the second.

Compared with FQRRNMIEPRERTKFKRKYKVKLV [A13T], FQRRNMIEPRERMKFKRKYKVKLV [A13M] is higher in protein stability index: 2.03 for the first, 2.08 for the second.

First: FQRRNMIEPRERWKFKRKYKVKLV [A13W]
Second: FQRRNMIEPRERYKFKRKYKVKLV [A13Y]
The protein stability index of the first is lower: 1.61 for the first, 2.68 for the second.

First: FQRRNMIEPRERNKFKRKYKVKLV [A13N]
Second: FQRRNMIEPRERQKFKRKYKVKLV [A13Q]
The protein stability index of the first is higher: 3.21 for the first, 2.35 for the second.

Compared with FQRRNMIEPRERRKFKRKYKVKLV [A13R], FQRRNMIEPRERHKFKRKYKVKLV [A13H] is higher in protein stability index: 2.72 for the first, 2.74 for the second.

Compared with FQRRNMIEPRERVKFKRKYKVKLV [A13V], FQRTNMIEPRERAKFKRKYKVKLV [R4T] is lower in protein stability index: 3.38 for the first, 2.6 for the second.

Compared with FQRWNMIEPRERAKFKRKYKVKLV [R4W], FQRGNMIEPRERAKFKRKYKVKLV [R4G] is lower in protein stability index: 1.96 for the first, 1.9 for the second.

Going from FQRHNMIEPRERAKFKRKYKVKLV [R4H] to FQRNNMIEPRERAKFKRKYKVKLV [R4N], the protein stability index rises from 2.13 to 2.7.

First: FQRMNMIEPRERAKFKRKYKVKLV [R4M]
Second: FQRLNMIEPRERAKFKRKYKVKLV [R4L]
The protein stability index of the first is lower: 1.86 for the first, 2.51 for the second.

Going from FQRYNMIEPRERAKFKRKYKVKLV [R4Y] to FQRENMIEPRERAKFKRKYKVKLV [R4E], the protein stability index falls from 2.42 to 2.

First: FQRRNMIEPRERAKFKRKYKVDLV [K22D]
Second: FQRRNMIEPRERAKFKRKYKVWLV [K22W]
The protein stability index of the first is higher: 2.27 for the first, 1.67 for the second.

Compared with FQRRNMIEPRERAKFKRKYKVALV [K22A], FQRRNMIEPRERAKFKRKYKVLLV [K22L] is lower in protein stability index: 1.93 for the first, 1.85 for the second.

First: FQRRNMIEPRERAKFKRKYKVFLV [K22F]
Second: FQRRNMIEPRERAKFKRKYKVNLV [K22N]
The protein stability index of the first is lower: 1.73 for the first, 2.6 for the second.

Compared with FQRRNMIEPRERAKFKRKYKVGLV [K22G], FQRRNMIEPRERAKFKRKYKVELV [K22E] is lower in protein stability index: 2.97 for the first, 2.41 for the second.

Going from FQRRNMIEPRERAKFKRKYKVQLV [K22Q] to FQRRNMIEPRERAKFKRKYKVKFV [L23F], the protein stability index falls from 2.38 to 1.71.

Compared with FQRRNMIEPRERAKFKRKYKVKMV [L23M], FQRRNMIEPRERAKFKRKYKVKKV [L23K] is higher in protein stability index: 1.69 for the first, 2.41 for the second.

First: FQRRNMIEPRERAKFKRKYKVKRV [L23R]
Second: FQRRNMIEPRERAKFKRKYKVKYV [L23Y]
The protein stability index of the first is higher: 3.21 for the first, 2.46 for the second.

Going from FQRRNMIEPRERAKFKRKYKVKEV [L23E] to FQRRNMIEPRERAKFKRKYKVKCV [L23C], the protein stability index rises from 2.56 to 2.73.

Compared with FQRRNMIEPRERAKFKRKYKVKGV [L23G], FQRRNMDEPRERAKFKRKYKVKLV [I7D] is higher in protein stability index: 3.17 for the first, 3.27 for the second.

Compared with FQRRNMVEPRERAKFKRKYKVKLV [I7V], FQRRNMWEPRERAKFKRKYKVKLV [I7W] is lower in protein stability index: 2.24 for the first, 1.9 for the second.

First: FQRRNMAEPRERAKFKRKYKVKLV [I7A]
Second: FQRRNMREPRERAKFKRKYKVKLV [I7R]
The protein stability index of the first is lower: 2.15 for the first, 2.46 for the second.

Compared with FQRRNMGEPRERAKFKRKYKVKLV [I7G], FQRRNMHEPRERAKFKRKYKVKLV [I7H] is lower in protein stability index: 2.35 for the first, 1.87 for the second.

Going from FQRRNMFEPRERAKFKRKYKVKLV [I7F] to FQRRNMNEPRERAKFKRKYKVKLV [I7N], the protein stability index rises from 2.2 to 2.64.

First: FQRRTMIEPRERAKFKRKYKVKLV [N5T]
Second: FQRREMIEPRERAKFKRKYKVKLV [N5E]
The protein stability index of the first is lower: 1.88 for the first, 3.05 for the second.

Compared with FQRRHMIEPRERAKFKRKYKVKLV [N5H], FQRRIMIEPRERAKFKRKYKVKLV [N5I] is higher in protein stability index: 1.88 for the first, 2.36 for the second.

First: FQRRQMIEPRERAKFKRKYKVKLV [N5Q]
Second: FQRRFMIEPRERAKFKRKYKVKLV [N5F]
The protein stability index of the first is higher: 2.36 for the first, 1.59 for the second.

First: FQRRKMIEPRERAKFKRKYKVKLV [N5K]
Second: FQRRNMIEARERAKFKRKYKVKLV [P9A]
The protein stability index of the first is lower: 2.42 for the first, 3.52 for the second.

Going from FQRRNMIEFRERAKFKRKYKVKLV [P9F] to FQRRNMIENRERAKFKRKYKVKLV [P9N], the protein stability index falls from 2.4 to 2.34.

Compared with FQRRNMIEGRERAKFKRKYKVKLV [P9G], FQRRNMIERRERAKFKRKYKVKLV [P9R] is higher in protein stability index: 1.71 for the first, 2.5 for the second.

First: FQRRNMIEWRERAKFKRKYKVKLV [P9W]
Second: FQRRNMIELRERAKFKRKYKVKLV [P9L]
The protein stability index of the first is higher: 2.01 for the first, 1.78 for the second.

Going from FQRRNMIESRERAKFKRKYKVKLV [P9S] to FQRRNMIEMRERAKFKRKYKVKLV [P9M], the protein stability index falls from 2.33 to 2.06.

Compared with FQRRNMIEQRERAKFKRKYKVKLV [P9Q], FQRRNMIEHRERAKFKRKYKVKLV [P9H] is higher in protein stability index: 2.38 for the first, 2.47 for the second.

First: FVRRNMIEPRERAKFKRKYKVKLV [Q2V]
Second: FERRNMIEPRERAKFKRKYKVKLV [Q2E]
The protein stability index of the first is lower: 1.57 for the first, 2.3 for the second.

First: FRRRNMIEPRERAKFKRKYKVKLV [Q2R]
Second: FDRRNMIEPRERAKFKRKYKVKLV [Q2D]
The protein stability index of the first is higher: 2.62 for the first, 2.35 for the second.

First: FWRRNMIEPRERAKFKRKYKVKLV [Q2W]
Second: FARRNMIEPRERAKFKRKYKVKLV [Q2A]
The protein stability index of the first is lower: 1.84 for the first, 1.99 for the second.

Going from FCRRNMIEPRERAKFKRKYKVKLV [Q2C] to FQRRNMIEPRERAKFKRKYCVKLV [K20C], the protein stability index falls from 1.99 to 1.93.

Compared with FQRRNMIEPRERAKFKRKYNVKLV [K20N], FQRRNMIEPRERAKFKRKYAVKLV [K20A] is higher in protein stability index: 2.19 for the first, 3.25 for the second.

First: FQRRNMIEPRERAKFKRKYFVKLV [K20F]
Second: FQRRNMIEPRERAKFKRKYQVKLV [K20Q]
The protein stability index of the first is higher: 2.52 for the first, 1.93 for the second.

First: FQRRNMIEPRERAKFKRKYEVKLV [K20E]
Second: FQRRNMIEPRERAKFKRKYGVKLV [K20G]
The protein stability index of the first is higher: 3.17 for the first, 2.22 for the second.

Going from FQRRNMIEPRERAKFKRKYLVKLV [K20L] to FQRRNMIEPRERAKFKRKYSVKLV [K20S], the protein stability index rises from 2.08 to 2.74.

First: FQRRNMIFPRERAKFKRKYKVKLV [E8F]
Second: FQRRNMIYPRERAKFKRKYKVKLV [E8Y]
The protein stability index of the first is lower: 1.82 for the first, 2.23 for the second.

Going from FQRRNMICPRERAKFKRKYKVKLV [E8C] to FQRRNMIVPRERAKFKRKYKVKLV [E8V], the protein stability index falls from 3.15 to 2.25.
